We go through two molecules from patent US20250066499A1 (SUNSHINE GUOJIAN PHARMACEUTICAL SHANGHAI, published 2025).

Changes are numbered by the printed parent chain.

In one test the target is T1, CD73-CD-his (human, UniProt P21589 337-549).
T1 construct: it fits residue S549 of P21589 (27+522)
T1 sequence: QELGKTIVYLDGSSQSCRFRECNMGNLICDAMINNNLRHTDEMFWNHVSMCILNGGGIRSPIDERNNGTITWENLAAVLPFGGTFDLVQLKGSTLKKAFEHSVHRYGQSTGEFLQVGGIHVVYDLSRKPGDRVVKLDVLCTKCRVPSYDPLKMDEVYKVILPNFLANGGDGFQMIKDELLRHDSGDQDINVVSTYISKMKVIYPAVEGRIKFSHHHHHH
In words: ELISA as in Example 3, antigen CD73-CD-his, antibody titrated, absorbance 450 nm. In general terms: In an ELISA, binding on a coated surface is turned into a signal by an enzyme label.

A further test addresses T2, CD73-ND-Y135A (human, UniProt P21589 27-317).
T2 construct: Alanine mutant of CD73-ND
T2 sequence: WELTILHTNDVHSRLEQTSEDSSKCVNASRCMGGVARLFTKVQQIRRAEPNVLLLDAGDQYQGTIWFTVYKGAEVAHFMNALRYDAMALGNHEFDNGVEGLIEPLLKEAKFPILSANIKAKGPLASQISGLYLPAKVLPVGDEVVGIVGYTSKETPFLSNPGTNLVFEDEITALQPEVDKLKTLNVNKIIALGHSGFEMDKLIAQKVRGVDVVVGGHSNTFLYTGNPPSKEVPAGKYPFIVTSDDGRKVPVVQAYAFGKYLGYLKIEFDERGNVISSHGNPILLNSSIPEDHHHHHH
In words: ELISA, biotinylated antigen on streptavidin plate. The method, then:
(§1) The ELISA plates were coated with SA protein diluted to 1.5 μg/mL in coating buffer (50 mM carbonate coating buffer, pH 9.6) and incubated overnight at 4° C. The supernatant was discarded, and the plates were washed three times with PBST. Then, 5% skimmed milk powder prepared with PBS was added for blocking and the plates were incubated for 2 h at 37° C. After washing the plates once with PBST, CD73-biotin protein (prepared by biotinylating CD73-His protein according to the EZ-Link NHS-Biotin Reagent instructions) was diluted to 0.5 μg/mL and added at 100 μL/well for incubation at room temperature for 1 h. The plates were washed three times with PBST, and the prepared murine-derived monoclonal antibodies against human CD73 were serially diluted with 1% BSA buffer prepared with PBST and added to the ELISA plates at 100 μl/well. The plates were incubated at 37° C. for 1 h. After washing the plates three times with PBST, HRP-labeled goat anti-mouse IgG secondary antibody was added and the plates were incubated for 30 min at 37° C. After washing the plates three times with PBST, the residual droplets were patted dry on absorbent paper as much as possible. Then, 100 μl of TMB color developing solution was added to each well, and the plates were incubated in the dark at room temperature for 5 min for color development. Subsequently, 50 μl of 2M H₂SO₄ stop solution was added to each well to terminate the substrate reaction. The OD values were read at 450 nm using a multimode microplate reader to analyze the binding ability of the tested antibodies to the target antigen human CD73-His.
(§2) Referring to the experimental method in Example 3, the affinity of 48A11-HuV33 for various mutant proteins of CD73-ND was determined. The SA protein was diluted to 1 μg/mL for coating the ELISA plates, and the biotinylated CD73 protein (CD73-biotin) was used at a concentration of 0.1 μg/mL.

Another test addresses T3, CD73-ND-L138A (human, UniProt P21589 27-317).
T3 construct: Alanine mutant of CD73-ND
T3 sequence: T2 sequence with A135Y, L138A
Put plainly: ELISA, biotinylated antigen on streptavidin plate. The method, then: as §1, §2

A further test addresses T4, CD73-ND-K182A (human, UniProt P21589 27-317).
T4 construct: Alanine mutant of CD73-ND
T4 sequence: T2 sequence with A135Y, K182A
Put plainly: ELISA, biotinylated antigen on streptavidin plate. Here is the method: as §1, §2

A further test has as its target T5, CD73-ND-K180A (human, UniProt P21589 27-317).
T5 construct: Alanine mutant of CD73-ND
T5 sequence: T2 sequence with A135Y, K180A
In words: ELISA, biotinylated antigen on streptavidin plate. The method, then: as §1, §2

In another test the target is T6, CD73-ND-T183A (human, UniProt P21589 27-317).
T6 construct: Alanine mutant of CD73-ND
T6 sequence: T2 sequence with A135Y, T183A
Put plainly: ELISA, biotinylated antigen on streptavidin plate. The method, then: as §1, §2

B1: 56B10-HuV31 (antibody, human IgG4, V domains shown)
VH: QVQLQQSGAEVKKPGASVKVSCKASGYTFTRYYIYWVRQRPGQGLEWIGWIYPGNFNTKYNEKFKGRATLTADTSASTAYMELSSLTSEDTAVYYCARDVYDYAGFAYWGQGTLVTVSS
VL: DIQLTQSPSFLSASVGDRVTITCKASQGVATAVAWYQQKPGQSPKLLIYWASTRHTGVPDRFSGSGSGTEFTLTISSLQPEDFATYYCQQYSSYPWTFGQGTKVEIK
notes: Humanized
Consider B1, for which the binding result in the test with CD73-CD-his is listed as “no binding (tested: 10 nM)”.

B2: 48A11-HuV33 (antibody, human IgG4, V domains shown)
VH: QVQLVQSGAEVKKPGASVKVSCKASGYTFTSYWMHWVRQAPGQGLEWIGEINPSIGRTNYNEKFKSRVTLTRDTSTSTAYMELSSLRSEDTAVYYCARRVYGTMDYWGQGTLVTVSS
VL: DIQMTQSPSSLSASVGDRVTITCKASQDINSYLSWFQQKPGKSPKLLIYRANIWVDGVPSRFSGSGSGQDYTFTISSLQPEDIATYYCLQYDELYTFGQGTKVEIK
notes: Humanized
For orientation: EC50 means the concentration at which the effect is half-maximal. For B2, the EC50 in the test with CD73-ND-Y135A is 0.165 nM; with CD73-ND-L138A, 0.182 nM; with CD73-ND-K182A, 0.121 nM; in the test with CD73-ND-K180A, 0.321 nM; with CD73-ND-T183A, 0.159 nM.
